Assay results as given in article PMC7104937.

Target: soluble ectodomain protein of human CD26 (hCD26) (human), P27487
Test: crystal structure
Details: remark: other sources report otherwise

B1: soluble ectodomain protein of human CD26 (hCD26), P27487 29-766 (receptor)
chain: NKGTDDATADSRKTYTLTDYLKNTYRLKLYSLRWISDHEYLYKQENNILVFNAEYGNSSVFLENSTFDEFGHSINDYSISPDGQFILLEYNYVKQWRHSYTASYDIYDLNKRQLITEERIPNNTQWVTWSPVGHKLAYVWNNDIYVKIEPNLPSYRITWTGKEDIIYNGITDWVYEEEVFSAYSALWWSPNGTFLAYAQFNDTEVPLIEYSFYSDESLQYPKTVRVPYPKAGAVNPTVKFFVVNTDSLSSVTNATSIQITAPASMLIGDHYLCDVTWATQERISLQWLRRIQNYSVMDICDYDESSGRWNCLVARQHIEMSTTGWVGRFRPSEPHFTLDGNSFYKIISNEEGYRHICYFQIDKKDCTFITKGTWEVIGIEALTSDYLYYISNEYKGMPGGRNLYKIQLSDYTKVTCLSCELNPERCQYYSVSFSKEAKYYQLRCSGPGLPLYTLHSSVNDKGLRVLEDNSALDKMLQNVQMPSKKLDFIILNETKFWYQMILPPHFDKSKKYPLLLDVYAGPCSQKADTVFRLNWATYLASTENIIVASFDGRGSGYQGDKIMHAINRRLGTFEVEDQIEAARQFSKMGFVDNKRIAIWGWSYGGYVTSMVLGSGSGVFKCGIAVAPVSRWEYYDSVYTERYMGLPTPEDNLDHYRNSTVMSRAENFKQVEYLLIHGTADDNVHFQQSAQISKALVDVGVDFQAMWYTDEDHGIASSTAHQHIYTHMSHFIKQCFSLP
How did the stoichiometry N turn out when B1 was run?
The stoichiometry N was 2.
